{"source": "paper doi:10.1101/2025.02.27.640520", "biological_target": "DeCLIC (Desulfofustis deltaproteobacterium)", "test": "cryo-EM structure", "data": [{"substance": "DeCLIC (natural protein)", "values": [{"measurement": "stoichiometry N", "result": 5}]}]}
